In article PMC3384312 (Nucleic Acids Research, 2012):
5‑acetamidofluorescein = fluorescein label from 5-iodoacetamidofluorescein attached at Cys

Assays:
MEF2A (1-95) [1] = target: T1, MEF2A (1-95) (UniProt Q02078 1-95); test: fluorescence polarisation
T1 sequence: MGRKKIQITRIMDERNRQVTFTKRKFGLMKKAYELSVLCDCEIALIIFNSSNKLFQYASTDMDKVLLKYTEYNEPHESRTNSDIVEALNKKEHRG

MEF2A (1-95) [2] = target: T1, MEF2A (1-95); test: SPR
crystal structure = target: the molecule itself; test: crystal structure

B1: HDAC4 fragment (AA 155-218) labeled by 5-Iodoacetamidofluorescein via Cys194 (domain or fragment, UniProt P56524 155-218, looked up)
chain: LKNKEKGKESAVASTEVKMKLQEFVLNKKKALAHRNLNHC(5‑acetamidofluorescein)ISSDPRYWYGKTQHSSLDQSSPPQ
- binding result (MEF2A (1-95) [1]): binds

B2: HDAC4 (AA 155-220) (domain or fragment)
chain: LKNKEKGKESAVASTEVKMKLQEFVLNKKKALAHRNLNHCISSDPRYWYGKTQHSSLDQSSPPQSG
- binding result (MEF2A (1-95) [2]): binds

B3: MEF2A (1-78) (domain or fragment)
chain: MGRKKIQITRIMDERNRQVTFTKRKFGLMKKAYELSVLCDCEIALIIFNSSNKLFQYASTDMDKVLLKYTEYNEPHES
- binding result (crystal structure): binds
